Experimental data from WO2021110095A1 (dated 2021).

Molecular target: human GPC3 full-length protein on cells (CHO-K1-hGPC3; cells expressing GPC3) (human, UniProt P51654 25-580)
Experiment: cell-based or functional assay

Sequence of human GPC3 full-length protein on cells (CHO-K1-hGPC3; cells expressing GPC3) (P51654 25-580, form in doubt): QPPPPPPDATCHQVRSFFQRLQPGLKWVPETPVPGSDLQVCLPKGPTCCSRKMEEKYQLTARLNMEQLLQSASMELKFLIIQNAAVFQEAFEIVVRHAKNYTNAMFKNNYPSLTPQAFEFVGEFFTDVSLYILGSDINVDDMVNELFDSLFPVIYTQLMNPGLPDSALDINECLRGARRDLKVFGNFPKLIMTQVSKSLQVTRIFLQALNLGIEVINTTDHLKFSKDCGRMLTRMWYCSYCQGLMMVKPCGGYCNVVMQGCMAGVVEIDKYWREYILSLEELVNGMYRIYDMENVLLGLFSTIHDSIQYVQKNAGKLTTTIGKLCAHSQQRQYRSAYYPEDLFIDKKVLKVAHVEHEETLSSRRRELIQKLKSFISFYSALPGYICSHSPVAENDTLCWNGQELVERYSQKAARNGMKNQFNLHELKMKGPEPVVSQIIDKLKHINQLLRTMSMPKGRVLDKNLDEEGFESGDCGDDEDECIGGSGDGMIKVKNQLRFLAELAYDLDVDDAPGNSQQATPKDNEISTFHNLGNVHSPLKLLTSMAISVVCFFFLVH

CDC, IC50: 0.308 nM
B1: humanized antibody Ab9 (antibody, human IgG1, kappa, V domains shown)
VH: QVQLVQSGAEVKKPGASVKVSCKASGYTFTDYEMHWVRQAPGQGLEWMGAIDPKTGRTAYNQKFKDRVTLTADKSTSTAYMELSSLTSEDTAVYYCTRYYSYAYWGQGTLVTVSS
VL: DVVMTQSPLSLSVTPGEPASISCRSSQSLVHSNRNTYLQWYLQKPGQPPQLLIYKVSNRFSGVPDRFSGSGSGTDFTLKISRVEAEDVGVYYCSQSIHVPYTFGQGTKLEIKR
